Data published in US20210040204A1 (INSERM INSTITUT NATIONAL DE LA SANT ET DE LA RECHERCHE M …, published 2021).

Experiments:
human Claudin-1 [1] = target: T1, human Claudin-1 (human, UniProt O95832 1-211); experiment: flow cytometry on Huh7.5.1 and HepG2 cells with surface CLDN1 (FIG. 2A)
T1 construct: whole, on cells; also called CLDN1; human CLDN1
T1 sequence (looked up): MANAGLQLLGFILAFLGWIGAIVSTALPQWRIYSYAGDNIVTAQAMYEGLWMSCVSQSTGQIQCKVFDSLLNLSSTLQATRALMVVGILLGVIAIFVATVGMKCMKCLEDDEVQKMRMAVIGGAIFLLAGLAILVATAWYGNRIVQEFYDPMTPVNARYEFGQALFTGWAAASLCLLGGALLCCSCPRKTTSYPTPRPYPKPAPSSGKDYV
Method: (§1) FIG. 2. […] (A) Flow cytometry analysis of the binding of humanized OM-7D3-B3 anti-CLDN1 mAbs (20 μg/mL) to cell lines. […] Binding is expressed as delta median fluorescence intensity (ΔMFI). […] After 48 h, cells were stained with isotype control, rat OM-7D3-B3 or humanized H3L3 antibody (20 μg/mL). The ΔMFI from one experiment performed in duplicate are shown. […] Huh 7.5.1 cells were incubated with different mAbs (25 μg/mL) at 37° C. for 1 h prior to infection with HCVcc. Infectivity was assessed after 72 h by measuring luciferase activity and is expressed as log relative luciferase units (RLU). (D) Humanized anti-CLDN1 mAbs inhibit entry of HCVpp bearing envelope glycoproteins of strains H77 (genotype 1a) and HCV-J (genotype 1b). PHH were pre-treated with the humanized antibodies (20 μg/mL) for 1 h at 37° C. prior to infection with HCVpp. Infectivity was measured by luciferase activity after 72 h and is expressed as RLU. Graphs show results from one experiment performed in duplicate (A, B, D) or in triplicate (C).
(§2) Flow cytometry. […] Cells were washed and incubated with phycoerythrin (PE)-conjugated species-specific secondary antibodies at 4° C. for 45 min to allow detection of binding. Cells were subsequently washed and fixed with 2% paraformaldehyde (PFA) prior to analysis by flow cytometry using a BD LSRII flow cytometer. Net delta median fluorescence intensities (ΔMFI) were obtained after subtracting the background fluorescence with PBS. […] After 48 h, binding of antibodies was assessed as described above.

human Claudin-1 [2] = target: T1, human Claudin-1; experiment: flow cytometry, 20 µg/mL, 293T cells transfected with CLDN1-expressing pcDNA3.1 (FIG. 2B)
Method: as §1
as §2, with “Cells were subsequently washed and fixed with 2% paraformaldehyde (PFA) prior to analysis by flow cytometry using a BD LSRII flow cytometer.” left out

human Claudin-1 [3] = target: T1, human Claudin-1; experiment: flow cytometry, 20 µg/mL, Huh7.5.1 and HepG2 cells (FIG. 2A)
Method: as §1
as §2, with “Cells were subsequently washed and fixed with 2% paraformaldehyde (PFA) prior to analysis by flow cytometry using a BD LSRII flow cytometer.” left out

human Claudin-1 [4] = target: T1, human Claudin-1; experiment: not described (data not shown)

B1: humanized anti-CLDN1 mAb H2L1 (antibody, V domains shown)
VH: QVQLVESGGGVVQPGRSLRLSCAASGFSFSSYGMNWVRQAPGKGLEWVTSISPSGSYFYYADSVKGRFTISRDNSKNTLYLQMNSLRAEDTAIYYCARLPGFNPPFDHWGQGTLVTVSS
VL: DIQMTQSPATLSVSPGERATLSCKASQNVGGNVDWYQWKPGQAPRLLIYGASNRYTGIPARFRGSGSGTEFTLTISSLQSEDFAVYYCLQYKNNPWTFGQGTKVEIK
notes: Full-length antibody made in CHO cells; variable domains fused to the constant domains of human IgG4 heavy and human kappa light chains
- binding result (human Claudin-1 [1]): binds

B2: humanized anti-CLDN1 mAb H2L2 (antibody, V domains shown)
VH: QVQLVESGGGVVQPGRSLRLSCAASGFSFSSYGMNWVRQAPGKGLEWVTSISPSGSYFYYADSVKGRFTISRDNSKNTLYLQMNSLRAEDTAIYYCARLPGFNPPFDHWGQGTLVTVSS
VL: DIQMTQSPSSLSASVGDRVTITCKASQNVGGNVDWYQWKPGKAPKLLIYGASNRYTGVPSRFRGSGSGTDFTLTISSLQPEDVATYYCLQYKNNPWTFGQGTKVEIK
notes: as for B1
- binding result (human Claudin-1 [1]): binds

B3: humanized anti-CLDN1 mAb H3L3 (antibody, V domains shown)
VH: QVQLVESGGGVVQPGRSLRLSCLGSGFSFSSYGMNWVRQAPGKGLEWVASISPSGSYFYYADSVKGRFTISRDNSKNTLYLQMTSLRAEDTAIYYCARLPGFNPPFDHWGQGTLVTVSS
VL: DIQMTQSPSSLSASVGDRVTITCKASQNVGGNVDWYQWKPGKAPKLLIYGASNRYTGVPDRFRGSGSGTDFTLTISSLQPEDVATYYCLQYKNNPWTFGGGTKVEIK
notes: Full-length antibody made in CHO cells; variable domains fused to the constant domains of human IgG4 heavy and human kappa light chains; also called humanized anti-CLDN1 antibody clone H3L3; humanized CLDN1 mAb (H3L3)
- binding result (human Claudin-1 [2]): binds

B4: humanized anti-CLDN1 mAb H1L1 (antibody, V domains shown)
VH: EVQLVESGGGLVKPGGSLRLSCAASGFSFSSYGMNWVRQAPGKGLEWVSSISPSGSYFYYADSVKGRFTISRDNAKNSLYLQMNSLRAEDTAVYYCARLPGFNPPFDHWGQGTLVTVSS
VL: DIQMTQSPATLSVSPGERATLSCKASQNVGGNVDWYQWKPGQAPRLLIYGASNRYTGIPARFRGSGSGTEFTLTISSLQSEDFAVYYCLQYKNNPWTFGQGTKVEIK
notes: as for B1
- binding result (human Claudin-1 [3]): binds

B5: humanized anti-CLDN1 mAb H1L2 (antibody, V domains shown)
VH: EVQLVESGGGLVKPGGSLRLSCAASGFSFSSYGMNWVRQAPGKGLEWVSSISPSGSYFYYADSVKGRFTISRDNAKNSLYLQMNSLRAEDTAVYYCARLPGFNPPFDHWGQGTLVTVSS
VL: DIQMTQSPSSLSASVGDRVTITCKASQNVGGNVDWYQWKPGKAPKLLIYGASNRYTGVPSRFRGSGSGTDFTLTISSLQPEDVATYYCLQYKNNPWTFGQGTKVEIK
notes: as for B1
- binding result (human Claudin-1 [1]): binds

B6: humanized anti-CLDN1 mAb H1L3 (antibody, V domains shown)
VH: EVQLVESGGGLVKPGGSLRLSCAASGFSFSSYGMNWVRQAPGKGLEWVSSISPSGSYFYYADSVKGRFTISRDNAKNSLYLQMNSLRAEDTAVYYCARLPGFNPPFDHWGQGTLVTVSS
VL: DIQMTQSPSSLSASVGDRVTITCKASQNVGGNVDWYQWKPGKAPKLLIYGASNRYTGVPDRFRGSGSGTDFTLTISSLQPEDVATYYCLQYKNNPWTFGGGTKVEIK
notes: as for B1
- binding result (human Claudin-1 [1]): binds

B7: humanized anti-CLDN1 mAb H3L2 (antibody, V domains shown)
VH: QVQLVESGGGVVQPGRSLRLSCLGSGFSFSSYGMNWVRQAPGKGLEWVASISPSGSYFYYADSVKGRFTISRDNSKNTLYLQMTSLRAEDTAIYYCARLPGFNPPFDHWGQGTLVTVSS
VL: DIQMTQSPSSLSASVGDRVTITCKASQNVGGNVDWYQWKPGKAPKLLIYGASNRYTGVPSRFRGSGSGTDFTLTISSLQPEDVATYYCLQYKNNPWTFGQGTKVEIK
notes: as for B1
- binding result (human Claudin-1 [1]): binds

B8: humanized anti-CLDN1 mAb H2L3 (antibody, V domains shown)
VH: QVQLVESGGGVVQPGRSLRLSCAASGFSFSSYGMNWVRQAPGKGLEWVTSISPSGSYFYYADSVKGRFTISRDNSKNTLYLQMNSLRAEDTAIYYCARLPGFNPPFDHWGQGTLVTVSS
VL: DIQMTQSPSSLSASVGDRVTITCKASQNVGGNVDWYQWKPGKAPKLLIYGASNRYTGVPDRFRGSGSGTDFTLTISSLQPEDVATYYCLQYKNNPWTFGGGTKVEIK
notes: as for B1
- binding result (human Claudin-1 [1]): binds

B9: humanized anti-CLDN1 mAb H3L1 (antibody, V domains shown)
VH: QVQLVESGGGVVQPGRSLRLSCLGSGFSFSSYGMNWVRQAPGKGLEWVASISPSGSYFYYADSVKGRFTISRDNSKNTLYLQMTSLRAEDTAIYYCARLPGFNPPFDHWGQGTLVTVSS
VL: DIQMTQSPATLSVSPGERATLSCKASQNVGGNVDWYQWKPGQAPRLLIYGASNRYTGIPARFRGSGSGTEFTLTISSLQSEDFAVYYCLQYKNNPWTFGQGTKVEIK
notes: as for B1
- binding result (human Claudin-1 [1]): binds

B10: rat anti-CLDN1 mAb OM-7D3-B3 (antibody, V domains shown)
VH: EVQLVESGGGLVQPGRSLKLSCLGSGFSFSSYGMNWIRQAPGKGLEWVASISPSGSYFYYADSVKGRFTISRENAKNTLYLQMTSLRAEDTALYYCARLPGFNPPFDHWGQGVVVTVSS
VL: NTVMTQSPTSMFMSVGDRVTMNCKASQNVGGNVDWYQWKPGQSPKLLMYGASNRYTGVPDRFRGSGSGTDFTLTISNMQTEDLAVYYCLQYKNNPWTFGGGTKVELK
notes: Hybridoma antibody, rat IgG2b with rat kappa light chain; also called rat OM-7D3-B3; parental rat antibody
- binding result (human Claudin-1 [1]): binds

B11: recombinant full-length IgG2b (parent isotype) antibody with the VH and VL of rat OM-7D3-B3 (antibody, V domains shown)
VH: EVQLVESGGGLVQPGRSLKLSCLGSGFSFSSYGMNWIRQAPGKGLEWVASISPSGSYFYYADSVKGRFTISRENAKNTLYLQMTSLRAEDTALYYCARLPGFNPPFDHWGQGVVVTVSS
VL: NTVMTQSPTSMFMSVGDRVTMNCKASQNVGGNVDWYQWKPGQSPKLLMYGASNRYTGVPDRFRGSGSGTDFTLTISNMQTEDLAVYYCLQYKNNPWTFGGGTKVELK
notes: IgG2b as the parent; also called recombinant full-length IgG2b antibody
- binding result (human Claudin-1 [4]): binds
